Two substances from patent US20190119362A1 can be followed below.

In assay [1] the target is aIgE-Fab (Fab fragment of Omalizumab) (Humanized antibody/IgG1κ). The experiment in a line: column breakthrough, 1 mg/mL aIgE-Fab, 0.33 mL/min.
Assay [2] has the same target. The experiment in a line: ratio of 55% DBC for aIgE-Fab after against before 5 cycles of 50 mM NaOH.
For assay [3] the target is unchanged. The experiment in a line: column breakthrough, 1 mg/mL aIgE-Fab, after 5 cycles of 50 mM NaOH for 30 minutes.
For assay [4], the target named is aTNFa-Fab (Fab fragment of Infliximab) (Chimeric antibody/IgG1κ). In words: column breakthrough, 1 mg/mL aTNFa-Fab, quasi-static binding capacity at 55% breakthrough.

“LB5t-Wild.4d (tetramer of B5 domain of PpL 312), immobilized on agarose carrier”: in assay [1], the 55% DBC before the alkaline washing came to 23.6 mg/mL. Besides, the binding capability maintained after alkaline treatment in assay [2] is 92.8%. In assay [3], the 55% DBC after the alkaline washing was 21.9 mg/mL.

Take “commercially available Protein L carrier (HiTrap Protein L, GE Healthcare Bioscience)”: the 55% DBC in assay [4] was 4.8 mg/mL-gel.
